In article PMC10938568 (Science Advances, 2021) one finds Kd data, which are given here for two molecules.

Where two headings read alike, the source gives them in different places.

The labels stand for the following.
B2: His8-TEV-GABARAP (1 to 117) (natural protein)
chain: MKFVYKEEHPFEKRRSEGEKIRKKYPDRVPVIVEKAPKARIGDLDKKKYLVPSDLTVGQFYFLIRKRIHLRAEDALFFFVNNVIPPTSATMGQLYQEHHEEDFFLYIAYSDESVYGL

Holding throughout (assay): SPR
In experiment [1] the target is B2.
A further experiment addresses His8-TEV-LC3B (1 to 125) (human, UniProt Q9GZQ8 1-120).
Experiment [2] addresses T1, Biotinylated FLCN-8xGlycine-AviTag/FNIP2 (human, UniProt Q8NFG4;Q9P278, biotin on the AviTag).
Experiment [3] deals with T1, Biotinylated FLCN-8xGlycine-AviTag/FNIP2. This is another data set of the same source.

The Kd is the constant that tells how readily two partners part at equilibrium. Higher therefore signals weaker binding.

B1: GST-PreScission-p62 FIR 4P (domain or fragment)
chain: MESDNCSGGDDDWTHLSSKEVDPETGELQSLQMPESEGPEELDPEQEGPTGLKEA
For B1, the equilibrium dissociation constant (Kd) was 670 ± 80 nM in experiment [1] and 820 ± 40 nM in the experiment with His8-TEV-LC3B (1 to 125).
For B2, the Kd in experiment [2] amounted to 0.3 ± 0.018 nM; in experiment [3], 0.071 ± 0.01 nM.
